The record followed here is patent US20230265179A1 (TWIST BIOSCIENCE, published 2023).

For test [1], the target named is T1, IL1RL2 over-expressed on Expi293 cells (UniProt Q9HB29 20-575, limits assumed).
T1 construct: whole, on cells; Target of the flow cytometry assay; MFI ratio is over-expressing cells over parent cells
T1 sequence (looked up): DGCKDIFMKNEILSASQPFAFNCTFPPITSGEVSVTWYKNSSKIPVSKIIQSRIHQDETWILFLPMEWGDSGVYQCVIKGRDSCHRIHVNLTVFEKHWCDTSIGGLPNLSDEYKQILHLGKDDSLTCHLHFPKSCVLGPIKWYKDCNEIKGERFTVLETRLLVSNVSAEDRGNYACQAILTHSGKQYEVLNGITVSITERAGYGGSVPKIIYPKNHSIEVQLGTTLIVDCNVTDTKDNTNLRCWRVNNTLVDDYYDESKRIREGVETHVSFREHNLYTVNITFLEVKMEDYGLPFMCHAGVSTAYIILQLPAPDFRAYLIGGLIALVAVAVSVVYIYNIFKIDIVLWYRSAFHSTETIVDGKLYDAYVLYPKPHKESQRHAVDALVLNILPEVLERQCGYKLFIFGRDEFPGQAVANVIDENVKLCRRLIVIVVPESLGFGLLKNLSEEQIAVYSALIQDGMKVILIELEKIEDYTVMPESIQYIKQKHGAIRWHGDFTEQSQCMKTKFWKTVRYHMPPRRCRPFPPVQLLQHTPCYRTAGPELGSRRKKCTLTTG
Nature of the test: flow cytometry, over-expressing Expi293 vs parent cells, 100 nM antibody.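 Note: ratio is mean fluorescence intensity on over-expressing Expi293 cells divided by that measured on parental Expi293 cells.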
Experimental: (§1) All incubations and washes were in buffer containing PBS+1% BSA. MFI Ratio is defined by the mean fluorescence intensity (MFI) of the cytokine over-expressing Expi293 cell over the Expi293 parent cell. […] EC50 was calculated in GraphPad Prism.

In the next test the target is T2, IL1RL2 (UniProt Q9HB29 20-335, limits assumed).
T2 construct: Soluble analyte of the SPR runs
T2 sequence (looked up): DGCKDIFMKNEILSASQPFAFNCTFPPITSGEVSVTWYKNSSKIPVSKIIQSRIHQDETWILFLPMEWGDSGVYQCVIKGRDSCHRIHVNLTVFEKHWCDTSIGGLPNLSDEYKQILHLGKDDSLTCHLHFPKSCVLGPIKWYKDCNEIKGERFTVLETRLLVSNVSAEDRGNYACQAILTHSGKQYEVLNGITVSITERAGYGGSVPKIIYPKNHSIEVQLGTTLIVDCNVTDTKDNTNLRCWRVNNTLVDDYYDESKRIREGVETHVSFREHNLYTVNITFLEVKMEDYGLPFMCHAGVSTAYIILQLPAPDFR
Nature of the test: SPR (Carterra LSA), antibody immobilised, 1:1 model.

Test [2] concerns the target T3, TSLP on over-expressing Expi293 cells (UniProt Q969D9 29-159, limits assumed).
T3 construct: whole, on cells; Target of the flow cytometry assay; also called cytokine over-expressing Expi293 cells
Put plainly: flow cytometry, 100 nM, TSLP over-expressing Expi293 over parent cells.
Experimental: as §1

The target of a further test is T4, CD40L (UniProt P29965 1-261, limits assumed).
T4 construct: whole, on cells; also called cytokine over-expressing Expi293 cells (CD40L)
T4 sequence (looked up): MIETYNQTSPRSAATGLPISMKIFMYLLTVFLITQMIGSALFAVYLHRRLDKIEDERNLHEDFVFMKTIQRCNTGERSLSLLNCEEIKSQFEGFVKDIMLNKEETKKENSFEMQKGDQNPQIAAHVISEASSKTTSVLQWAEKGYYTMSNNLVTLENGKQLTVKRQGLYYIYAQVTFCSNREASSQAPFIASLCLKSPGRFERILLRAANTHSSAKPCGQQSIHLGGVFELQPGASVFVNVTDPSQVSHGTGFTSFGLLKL
Put plainly: flow cytometry, 100 nM IgG, CD40L over-expressing Expi293 cells over parent Expi293 cells.

Experimental for CD40L: as §1

B1: IL1RL2-11 (VHH)
VHH: EVQLVESGGGLVQPGGSLRLSCAASGRTFSRYAMGWFRQAPGKEREFVAAINWSGARTYYADSVKGRFTISADNSKNTAYLQMNSLKPEDTAVYYCAVSQPLNYYTYYDARRYDWGQGTLVTVSS
notes: VHH-Fc based on IgG2 Fc
As for B1, the “100 nM FACS (MFI Ratio)” value in test [1] came to 22.4. Besides, in the test with IL1RL2, the dissociation constant Kd stood at 8.48 nM, the koff was found to be 0.000342 s⁻¹ and the kon worked out at 40400 M⁻¹ s⁻¹.

B2: IL1RL2-23 (VHH)
VHH: EVQLVESGGGLVQPGGSLRLSCAASGPTFSTYAMGWFRQAPGKEREFVAAISWSGANTYYADSVKGRFTISADNSKNTAYLQMNSLKPEDTAVYYCAVSQPLNYYTYYDARRYDWGQGTLVTVSS
notes: VHH-Fc based on IgG2 Fc
For the molecule B2, in test [1], the “100 nM FACS (MFI Ratio)” value is 13.9. In the test with IL1RL2, this molecule registered a Kd of 8.13 nM, an off-rate (koff) of 0.000124 s⁻¹ and an on-rate constant (kon) of 15300 M⁻¹ s⁻¹.

B3: IL1RL2-29 (VHH)
VHH: EVQLVESGGGLVQPGGSLRLSCAASGGTFSAYTMGWFRQAPGKEREFVAAISWSGGSTYYADSVKGRFTISADNSKNTAYLQMNSLKPEDTAVYYCAVSQPLNYYTYYDARRYDWGQGTLVTVSS
notes: VHH-Fc based on IgG2 Fc
For B3, the “100 nM FACS (MFI Ratio)” value in test [1] was 5.46. In the test with IL1RL2, this molecule showed a dissociation constant (Kd) of 10.5 nM, an off-rate (koff) of 0.000279 s⁻¹ and a kon of 26500 M⁻¹ s⁻¹.

B4: TSLP-31 (VHH)
VHH: EVQLVESGGGLVQPGGSLRLSCAASGNIFANNIMGWFRQAPGKERELVSAIFSDGSTYYADSVKGRFTISADNSKNTAYLQMNSLKPEDTAVYYCARDDIVGAWSLDCWGQGPLMTVSS
notes: VHH-Fc (IgG2 Fc); not shown: IgG2 Fc of the VHH-Fc format
Regarding B4, the “100 nM (MFI Ratio)” value in test [2] came to 18.4 MFI ratio.

B5: TSLP-34 (VHH)
VHH: EVQLVESGGGLVQPGGSLRLSCAASGHIFANNIMGWFRQAPGKERELVSAIFSDGSTYYADSVKGRFTISADNSKNTAYLQMNSLKPEDTAVYYCARDAIVGAASLDYWGQGTLVTVSS
notes: as for B4
As to B5, in test [2], the “100 nM (MFI Ratio)” value is 16.5 MFI ratio.

B6: IL1RL2-24 (VHH)
VHH: EVQLVESGGGLVQPGGSLRLSCAASGRTFSTYDMGWFRQAPGKERELVASIVWIGGRTYYADSVKGRFTISADNSKNTAYLQMNSLKPEDTAVYYCADVNGDWGQGTLVTVSS
notes: VHH-Fc based on IgG2 Fc
Regarding B6, the “100 nM FACS (MFI Ratio)” value in test [1] is 18.1. Also, in the test with IL1RL2, the Kd was not above 0.103 nM, the koff is not above 1e-05 s⁻¹ and the kon came to 97200 M⁻¹ s⁻¹.

B7: IL1RL2-30 (VHH)
VHH: EVQLVESGGGLVQPGGSLRLSCAASGGTLRGFDIGWFRQAPGKEREFVAAVTWSGGSTNYADSVKGRFTISADNSKNTAYLQMNSLKPEDTAVYYCADVNGDWGQGTLVTVSS
notes: VHH-Fc based on IgG2 Fc
In the case of B7, in test [1], the “100 nM FACS (MFI Ratio)” value was 10.2. In the test with IL1RL2, the Kd is 2.14 nM, the koff was 0.000194 s⁻¹ and the on-rate (kon) came out at 90800 M⁻¹ s⁻¹.

B8: IL1RL2-2 (VHH)
VHH: EVQLVESGGGLVQPGGSLRLSCAASGFTRSYYTMGWFRQAPGKERELVASITRGGGTTYADSVKGRFTISADNSKNTAYLQMNSLKPEDTAVYYCADVNGDWGQGTLVTVSS
notes: VHH-Fc based on IgG2 Fc
For the molecule B8, the “100 nM FACS (MFI Ratio)” value in test [1] is 9.22. In the test with IL1RL2, this molecule gave a Kd of 10.2 nM, a koff of 0.000784 s⁻¹ and a kon of 76900 M⁻¹ s⁻¹.

B9: IL1RL2-31 (VHH)
VHH: EVQLVESGGGLVQPGGSLRLSCAASGRTFDSYDMGWFRQAPGKERELVASITFGGVTNYADSVKGRFTISADNSKNTAYLQMNSLKPEDTAVYYCADVNGDWGQGTLVTVSS
notes: VHH-Fc based on IgG2 Fc
B9: the “100 nM FACS (MFI Ratio)” value in test [1] came to 7.16. In the test with IL1RL2, the Kd is 3.82 nM, the off-rate constant (koff) stood at 0.000318 s⁻¹ and the kon came to 83300 M⁻¹ s⁻¹.

B10: TSLP-27 (VHH)
VHH: EVQLVESGGGLVQPGGSLRLSCAASGSTFSDRAMGWFRQAPGKERELVSAIFSDGSTLYADSVKGRFTISADNSKNTAYLQMNSLKPEDTAVYYCASDVGMDVWGQGTLVTVSS
notes: as for B4
On to B10, for which the “100 nM (MFI Ratio)” value in test [2] came out at 0.6 MFI ratio.

B11: TSLP-33 (VHH)
VHH: EVQLVESGGGLVQPGGSLRLSCAASGFSLDYYGMGWFRQAPGKEREFVAAIHWNGDSTLYADSVKGRFTIIADNSKNTAYLQMNSLKPEDTAVYYCARGFSGWFPFDYWGQGTLVTVSS
notes: as for B4
Consider B11, for which the “100 nM (MFI Ratio)” value in test [2] was 21 MFI ratio.

B12: TSLP-15 (VHH)
VHH: EVQLVESGGGLVQPGGSLRLSCAASGFILDDYAMGWFRQAPGKEREFVATIAGGYTYYADSVKGRFTISADNSKNTAYLQMNSLKPEDTAVYYCPVFDGYTRIHWGQGTLVTVSS
notes: as for B4
For the molecule B12, the “100 nM (MFI Ratio)” value in test [2] is 1.5 MFI ratio.

B13: TSLP-28 (VHH)
VHH: EVQLVESGGGLVQPGGSLRLSCAASGFTFDDYEMGWFRQAPGKEREFVGSIGCDGSTLYADSVKGRFTISADNSKNTAYLQMNSLKPEDTAVYYCTTDCDDHCGWGQGTLVTVSS
notes: as for B4
With B13, the “100 nM (MFI Ratio)” value in test [2] came to 0.7 MFI ratio.

B14: CD40L-416 (antibody, V domains shown)
VH: EVQLLESGGGLVQPGGSLRLSCAASGFTFSNYAMSWVRQAPGKGLEWVSAISGSGHSTYYADSVKGRFTISRDNSKNTLYLQMNSLRAEDTAVYYCARGGGYYNPLLFDYWGQGTLVTVSS
VL: DIQMTQSPSSLSASVGDRVTITCRASQYISTYLNWYQQKPGKAPKLLIYAASTLETGVPSRFSGSGSGTDFTLTISSLQPEDFATYYCQQSYSIPPVTFGGGTKVEIK
In the case of B14, the “100 nM FACS (MFI Ratio)” value with CD40L came to 3.4 MFI ratio.

B15: CD40L-434 (antibody, V domains shown)
VH: EVQLLESGGGLVQPGGSLRLSCAASGFGFSSYAMSWVRQAPGKGLEWVSAISGGGGSIYYADSVKGRFTISRDNSKNTLYLQMNSLRAEDTAVYYCARHGGYYYYYMDVWGQGTLVTVSS
VL: DIQMTQSPSSLSASVGDRVTITCRASQSVSRFLNWYQQKPGKAPKLLIYAASTLQPGVPSRFSGSGSGTDFTLTISSLQPEDFATYYCQQSYETPLTFGGGTKVEIK
For B15, in the test with CD40L, the “100 nM FACS (MFI Ratio)” value came to 6.1 MFI ratio.

B16: CD40L-398 (antibody, V domains shown)
VH: EVQLLESGGGLVQPGGSLRLSCAASGFTFSNYAMSWVRQAPGKGLEWVSAITGSGSTTYYADSVKGRFTISRDNSKNTLYLQMNSLRAEDTAVYYCARAHDYDSMLMDYWGQGTLVTVSS
VL: DIQMTQSPFSLSASVGDRVTITCRASQNILTYLNWYQQKPGKAPKLLIYGASTLRSGVPSRFSGSGSGTDFTLTISSLQPEDFATYYCQQSYRLPLTFGGGTKVEIK
For the molecule B16, the “100 nM FACS (MFI Ratio)” value with CD40L is 45.1 MFI ratio.

B17: CD40L-419 (antibody, V domains shown)
VH: EVQLLESGGGLVQPGGSLRLSCAASGFTFSNYAMSWVRQAPGKGLEWVSAITGSGSTTYYADSVKGRFTISRDNSKNTLYLQMNSLRAEDTAVYYCARAHDYDSMLMDYWGQGTLVTVSS
VL: DIQMTQSPSSLSASVGDRVTITCRAGQSISSYLNWYQQKPGKAPKLLIYASSTLQRGVPSRFSGSGSGTDFTLTISSLQPEDFATYYCQQSHSVPLTFGGGTKVEIK
Take B17: in the test with CD40L, the “100 nM FACS (MFI Ratio)” value is 18.6 MFI ratio.

B18: CD40L-403 (antibody, V domains shown)
VH: EVQLLESGGGLVQPGGSLRLSCAASGFTFRNYGMNWVRQAPGKGLEWVSSISGSGDYTYYADSVKGRFTISRDNSKNTLYLQMNSLRAEDTAVYYCARGLTYDILPRFDSWGQGTLVTVSS
VL: DIQMTQSPSSLSASVGDRVTITCRASQTISPYLNWYQQKPGKAPKLLIYAASTLQAGVPSRFSSSGSGTDFTLTISSLQPEDFATYYCQQSYSLPLTFGGGTKVEIK
Take B18: in the test with CD40L, the “100 nM FACS (MFI Ratio)” value worked out at 3.1 MFI ratio.

B19: CD40L-414 (antibody, V domains shown)
VH: EVQLLESGGGLVQPGGSLRLSCAASGFTFSNYAMSWVRQAPGKGLEWVSAITGSGSTTYYADSVKGRFTISRDNSKNTLYLQMNSLRAEDTAVYYCATDYGDYDRLNFDLWGQGTLVTVSS
VL: DIQMTQSPSSLSASVGDRVTITCRASQSIGTFLNWYQQKPGKAPKLLIYGTSNLQSGVPSRFSGSGSGTDFTLTISSLQPEDFATYYCQQGYRTPLTFGGGTKVEIK
Turning to B19, the “100 nM FACS (MFI Ratio)” value with CD40L is 11.2 MFI ratio.
